Test results taken from patent publication US20100286372A1 (SCHERING, published 2010).

Columns and labels:
[1] = biological target: T1, human PXR-LBD (pregnane X receptor ligand binding domain, residues 130-434) with N-terminal 6x His (human, UniProt O75469 130-434); test: temperature-dependent circular dichroism (thermal denaturation) of PXR with 50 uM peptide
T1 construct: also called apo PXR; not shown: N-terminal 6x His tag
T1 sequence: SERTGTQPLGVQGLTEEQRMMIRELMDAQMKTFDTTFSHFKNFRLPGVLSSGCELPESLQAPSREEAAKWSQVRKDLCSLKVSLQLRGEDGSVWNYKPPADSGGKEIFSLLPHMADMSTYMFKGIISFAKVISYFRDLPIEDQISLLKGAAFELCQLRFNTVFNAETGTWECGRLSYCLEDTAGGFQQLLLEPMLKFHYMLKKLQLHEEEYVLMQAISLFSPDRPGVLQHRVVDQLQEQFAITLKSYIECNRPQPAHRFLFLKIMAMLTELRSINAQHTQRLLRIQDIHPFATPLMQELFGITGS

[2] = biological target: T1, human PXR-LBD (pregnane X receptor …); test: temperature-dependent circular dichroism (thermal denaturation), shift against apo PXR (Tm 41.5 C)
[3] = biological target: T1, human PXR-LBD (pregnane X receptor …); test: temperature-dependent circular dichroism (thermal denaturation at 220 nm), 2.5 uM PXR, 50 uM peptide

B1: SRC-1 peptide (676-CPSSHSSLTERHKILHRLLQEGSPS-700) (peptide)
peptide: CPSSHSSLTERHKILHRLLQEGSPS
[1]
  Tm: 45.5 C
[2]
  ΔTm: 4 C
[3]
  Kd: 1340 nM
